2 molecules from PMC2764420 can be followed below.

Experiment [1] addresses Tn10 transposase. Put plainly: cross-linking.
Experiment [2] deals with Tn10 transposase. Nature of the experiment: cross-linking. This is another data set of the same source.
Experiment [3] has as its target folded Tn10 transpososome (UniProt P0A6X7). Put plainly: native gel or EMSA. For orientation: Mobility shift assays separate free from complexed probe on a gel.
Experiment [4] addresses pre-unfolded Tn10 transpososome. Put plainly: native gel or EMSA.

Where two headings read alike, the source gives them in different places.

Sequence of UniProt P0A6X7 (P0A6X7 whole entry, looked up): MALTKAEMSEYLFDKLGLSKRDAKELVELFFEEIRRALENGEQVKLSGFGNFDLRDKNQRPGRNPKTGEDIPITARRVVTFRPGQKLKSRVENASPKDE

As a reminder, the stoichiometry N is a count of units in the complex or per binding partner. Regarding Tn10 transposase (enzyme), the stoichiometry N in experiment [1] and in experiment [2] was 2 each time.

B1: H-NS (histone-like nucleoid-structuring protein), wild type (natural protein)
chain: MSEALKILNNIRTLRAQARECTLETLEEMLEKLEVVVNERREEESAAAAEVEERTRKLQQYREMLIADGIDPNELLNSLAAVKSGTKAKRAQRPAKYSYVDENGETKTWTGQGRTPAVIKKAMDEQGKSLDDFLIKQ
Usually Kd stands for the free concentration of one partner at which half of the binding sites on the other are occupied at equilibrium, for simple one-to-one binding. Molecule B1 registered a percent of transpososome converted to an H-NS form at 6 nM H-NS in experiment [3] of 5%. In experiment [4], this molecule registered a Kd of 0.3 nM and a percent of transpososome converted to an H-NS-bound form of over 95%.
